T1: DRED complex (TR2/TR4 heterodimer DNA-binding core) (Mus musculus, UniProt Q505F1;P49117 Q505F1:1-590,P49117:1-596)
T1 sequence 1: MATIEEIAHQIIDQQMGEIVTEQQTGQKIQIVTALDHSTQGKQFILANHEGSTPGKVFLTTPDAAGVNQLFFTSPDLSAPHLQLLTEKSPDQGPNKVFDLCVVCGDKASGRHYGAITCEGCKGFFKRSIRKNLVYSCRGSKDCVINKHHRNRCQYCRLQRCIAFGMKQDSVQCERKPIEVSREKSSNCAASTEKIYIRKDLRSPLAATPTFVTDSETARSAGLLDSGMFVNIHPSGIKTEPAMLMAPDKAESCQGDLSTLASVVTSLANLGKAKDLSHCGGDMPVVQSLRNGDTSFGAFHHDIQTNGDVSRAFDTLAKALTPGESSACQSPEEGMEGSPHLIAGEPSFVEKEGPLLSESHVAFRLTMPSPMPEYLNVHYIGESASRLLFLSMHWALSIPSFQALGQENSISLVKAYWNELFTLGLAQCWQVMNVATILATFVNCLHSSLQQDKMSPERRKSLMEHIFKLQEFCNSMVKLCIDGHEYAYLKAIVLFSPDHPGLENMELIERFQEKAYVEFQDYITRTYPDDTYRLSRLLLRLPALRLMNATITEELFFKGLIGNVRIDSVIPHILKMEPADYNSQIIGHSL
T1 sequence 2: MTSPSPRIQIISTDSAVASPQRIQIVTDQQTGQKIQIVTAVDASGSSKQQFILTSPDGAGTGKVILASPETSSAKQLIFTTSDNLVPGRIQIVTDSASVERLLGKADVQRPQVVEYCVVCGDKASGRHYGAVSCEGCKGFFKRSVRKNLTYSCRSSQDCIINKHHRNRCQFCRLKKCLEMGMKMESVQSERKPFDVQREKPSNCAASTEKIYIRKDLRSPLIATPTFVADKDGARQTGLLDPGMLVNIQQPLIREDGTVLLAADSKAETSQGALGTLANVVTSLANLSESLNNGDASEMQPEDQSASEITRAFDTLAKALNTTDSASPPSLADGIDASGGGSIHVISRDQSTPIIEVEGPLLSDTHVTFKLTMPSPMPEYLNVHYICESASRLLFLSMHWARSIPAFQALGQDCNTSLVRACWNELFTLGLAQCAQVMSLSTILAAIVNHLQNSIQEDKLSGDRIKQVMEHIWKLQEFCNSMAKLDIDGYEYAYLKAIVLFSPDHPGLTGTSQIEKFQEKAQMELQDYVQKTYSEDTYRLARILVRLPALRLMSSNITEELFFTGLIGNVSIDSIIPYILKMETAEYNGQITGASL

T2: mouse TR4 orphan nuclear receptor, Flag-tagged at the amino terminus, wild type (mouse, UniProt P49117 1-596)
T2 construct: also called wild type TR4; not shown: Flag tag at the amino terminus
T2 sequence (looked up): T1 sequence 2

B1: beta (dsDNA)
DNA 1: TAGGGTTGGCCAATCTACTCCC
DNA 2: GGGAGTAGATTGGCCAACCCTA
B2: beta-major (dsDNA)
DNA 1: TGGTAAGGGCCAATCTGCTCACA
DNA 2: TGTGAGCAGATTGGCCCTTACCA
B3: epsilon distal DR (dsDNA)
DNA 1: CCCTGAGGACACAGGTCAGCCTTG
DNA 2: CAAGGCTGACCTGTGTCCTCAGGG
B4: epsilon-y proximal DR (dsDNA)
DNA 1: TCAGGCTGACCAATGGCTTCAAA
DNA 2: TTTGAAGCCATTGGTCAGCCTGA
B5: beta-h1 DR (dsDNA)
DNA 1: CCCAGACTCTCTTGACCAATAGCCTCAGAGTCCT
DNA 2: AGGACTCTGAGGCTATTGGTCAAGAGAGTCTGGG
B6: mouse TR2 orphan nuclear receptor, Flag-tagged at the amino terminus, wild type (receptor, UniProt Q505F1 1-590, looked up)
chain: T1 sequence 1
notes: also called wild type TR2; not shown: Flag tag at the amino terminus
B7: epsilon-y distal DR (dsDNA)
DNA 1: CCATGAGGACCACGGGTCAGGCTGA
DNA 2: TCAGCCTGACCCGTGGTCCTCATGG
B8: gamma DR (dsDNA)
DNA 1: GCCTTGCCTTGACCAATAGCCTTGACAA
DNA 2: TTGTCAAGGCTATTGGTCAAGGCAAGGC
B9: epsilon proximal DR (dsDNA)
DNA 1: CAGCCTTGACCAATGACTTTTA
DNA 2: TAAAAGTCATTGGTCAAGGCTG

Experiments:
[1] = molecular target: TR4 coexpressed with dnTR2 dnTR2 chain: three Lys/Arg to Glu in DNA binding domain (Mus musculus) (UniProt P49117+Q505F1); experiment: EMSA; settings: TR4 binding diminished by about 80% (TR4 alone = 100%)
[2] = molecular target: TR4 coexpressed with dnTR4 dnTR4 chain: three Lys/Arg to Glu in DNA binding domain (Mus musculus) (UniProt P49117+P49117); experiment: EMSA; settings: TR4 binding diminished by about 80% (TR4 alone = 100%)
[3] = molecular target: T1, DRED complex (TR2/TR4 heterodimer …); experiment: competition; EMSA competition vs 1.1 nM 32P epsilon distal DR probe; judged too low for functional association; settings: protein: extract; tags: native, MEL mouse erythroleukemia cell nuclear extract; blunt ended
Experimental: (§1) Electrophoretic Gel Mobility Shift Assay (EMSA). Nuclear extracts preparation, binding reactions, and electrophoresis were performed as described previously (Tanimoto et al., 2000). The following blunt ended oligonucleotides were used as probes or competitors in EMSA (only sense strands are shown): ε distal DR, 5′-[…]-3′ (SEQ ID NO: 19); ε proximal DR, 5′-[…]-3′ (SEQ ID NO: 20); γ DR, 5′-[…]-3′ (SEQ ID NO: 21); β, 5′-[…]-3′ (SEQ ID NO: 22); εy distal DR, 5′-[…]-3′ (SEQ ID NO: 23); εy proximal DR, 5′-[…]-3′ (SEQ ID NO: 24); βh1 DR, 5′-[…]-3′ (SEQ ID NO: 25); β^major, 5′-[…]-3′ (SEQ ID NO: 26).
(§2) Free and bound ³²P-labeled probe was quantified on a PhosphoImager. The competitive binding experiments were then performed using 1.1 nM ³²P-labeled ε distal DR probe and 70 pM to 2 μM of each competitor double-strand oligonucleotide to determine the 50% inhibitory concentration (IC₅₀). The equilibrium dissociation constant (Ki) for each competitor was then determined by the following equation (Cheng and Prusoff, 1973): […]

[4] = molecular target: T1, DRED complex (TR2/TR4 heterodimer …); experiment: competition; EMSA competition vs 1.1 nM 32P epsilon distal DR probe; unlabeled competitor; settings: protein: extract; tags: native, MEL mouse erythroleukemia cell nuclear extract; label: 32P (probe); blunt ended
Experimental: as §1, §2

[5] = molecular target: T1, DRED complex (TR2/TR4 heterodimer …); experiment: EMSA; saturation binding, MEL nuclear extract; settings: protein: extract; tags: native, MEL mouse erythroleukemia cell nuclear extract; label: 32P (probe); blunt ended
Experimental: as §1, §2

[6] = molecular target: T1, DRED complex (TR2/TR4 heterodimer …); experiment: competition; EMSA competition vs 1.1 nM 32P epsilon distal DR probe; settings: protein: extract; tags: native, MEL mouse erythroleukemia cell nuclear extract; blunt ended
Experimental: as §1, §2

[7] = molecular target: T2, mouse TR4 orphan nuclear receptor, …; experiment: EMSA of nuclear extracts of co-transfected 293T cells on the ε distal DR probe; heterodimer inferred
Experimental: 20 μg of expression plasmid was mixed with 40 μl of lipofectamine 2000 (Invitrogen) and then added to each dish according to the manufacturer's instruction. Forty-eight hours after transfection, cells were harvested and nuclear extracts were prepared.
as §1
After transfection, nuclear extracts were prepared and examined for binding to the ε distal-DR element by EMSA (FIG. 1C). […] When TR2 and TR4 were coexpressed to generate TR2/TR4 heterodimers (Tanabe et al., 2002), generated an even more intense signal.

Row | Molecule | Ki [3] [nM] | Ki [6] [nM] | also measured
1 | CCCTGAGGACACAGGTCAGCCTTG (double strand) [epsilon distal DR] |  |  | binding signal [1]: 20%; binding signal [2]: 20%
2 | B1 | 420 |  | 
3 | B2 | 170 |  | 
4 | B3 |  |  | Ki [4]: 0.97 nM; Kd [5]: 0.56 nM
5 | B4 | 59 |  | 
6 | B5 |  | 18 | 
7 | B6 |  |  | binding result [7]: binds
8 | B7 |  | 4.1 | 
9 | B8 |  | 13 | 
10 | B9 |  | 2.8 | 
